PMC3897949

Target: PCAF HAT domain (amino acids 493-658), His-tagged (human), Q92831
Experiment: SEC-MALS; protein at 2, 6 and 20 mg/ml on a size exclusion column (WTC-010S5); 50 mM phosphate buffer pH 7.0, 150 mM NaCl, 35°C; monomer to dimer
Settings: remark: other sources report otherwise

stoichiometry N: 2
B1: PCAF HAT domain (amino acids 493-658), His-tagged, Q92831 493-658 (domain or fragment)
chain: VIEFHVVGNSLNQKPNKKILMWLVGLQNVFSHQLPRMPKEYITRLVFDPKHKTLALIKDGRVIGGICFRMFPSQGFTEIVFCAVTSNEQVKGYGTHLMNHLKEYHIKHDILNFLTYADEYAIGYFKKQGFSKEIKIPKTKYVGYIKDYEGATLMGCELNPRIPYTE
